In patent publication US12338277:

Columns and labels:
Assay in all cases: cell-based or functional assay
[1] = target: HIV-1 envelope of pseudovirus 211-9 (HIV-1)
[2] = target: HIV-1 Env of pseudovirus ZM249M.PL1 (HIV-1)
[3] = target: HIV-1 Env of pseudovirus CNE52 (HIV-1)
[4] = target: HIV-1 envelope of pseudovirus C3347.c11 (HIV-1)
[5] = target: HIV-1 envelope spike of pseudovirus QH0692.42 (HIV-1)
[6] = target: HIV-1 envelope spike of pseudovirus YU-2 (HIV-1) (UniProt P35961)
[7] = target: HIV-1 Env of pseudovirus QH0692.42 (HIV-1)
[8] = target: HIV-1 Env of pseudovirus 249M B10 (HIV-1)
[9] = target: HIV-1 envelope of pseudovirus 6480.v4.c25 (HIV-1)
[10] = target: HIV-1 Env of pseudovirus HIV-16055-2.3 (HIV-1)
[11] = target: HIV-1 Env of pseudovirus Ce0682_E4 (HIV-1)
[12] = target: HIV-1 Env of pseudovirus 620345.c01 (HIV-1)
[13] = target: HIV-1 Env of pseudovirus C2101.c01 (HIV-1)
[14] = target: HIV-1 Env of pseudovirus 231965.c01 (HIV-1)
[15] = target: HIV-1 Env of pseudovirus CAP210.2.00.E8 (HIV-1)
[16] = target: HIV-1 Env of pseudovirus CNE8 (HIV-1)
[17] = target: HIV-1 envelope of pseudovirus P1981_C5_3 (HIV-1)
[18] = target: HIV-1 Env of pseudovirus 3016.v5.c45 (HIV-1)
[19] = target: HIV-1 Env of pseudovirus REJO4541.67 (HIV-1)
[20] = target: HIV-1 envelope of pseudovirus C2101.c01 (HIV-1)
[21] = target: HIV-1 envelope of pseudovirus C1080.c03 (HIV-1)
[22] = target: HIV-1 envelope of pseudovirus RHPA4259.7 (HIV-1)
[23] = target: HIV-1 envelope of pseudovirus 191821_E6_1 (HIV-1)
[24] = target: HIV-1 envelope of pseudovirus 191084 B7-19 (HIV-1)
[25] = target: HIV-1 Env of pseudovirus AC10.0.29 (HIV-1)
[26] = target: HIV-1 Env of pseudovirus 191084 B7-19 (HIV-1)
[27] = target: HIV-1 envelope of pseudovirus C4118.c09 (HIV-1)
[28] = target: HIV-1 Env of pseudovirus CNE20 (HIV-1)
[29] = target: HIV-1 Env of pseudovirus CNE58 (HIV-1)
[30] = target: HIV-1 Env of pseudovirus Q769.d22 (HIV-1)
[31] = target: HIV-1 envelope of pseudovirus 249M B10 (HIV-1)
[32] = target: HIV-1 envelope spike of pseudovirus TRJO4551.58 (HIV-1)
[33] = target: HIV-1 Env of pseudovirus 6480.v4.c25 (HIV-1)
[34] = target: HIV-1 Env of pseudovirus BF1266.431a (HIV-1)
[35] = target: HIV-1 envelope spike of pseudovirus PVO.4 (HIV-1)
[36] = target: HIV-1 Env of pseudovirus RHPA4259.7 (HIV-1)
[37] = target: HIV-1 Env of pseudovirus WEAU_d15_410_787 (HIV-1)
[38] = target: HIV-1 Env of pseudovirus T251-18 (HIV-1)
[39] = target: HIV-1 Env of pseudovirus 246F C1G (HIV-1)
[40] = target: HIV-1 Env of pseudovirus 1394C9G1(Rev-) (HIV-1)
[41] = target: HIV-1 envelope of pseudovirus T251-18 (HIV-1)
[42] = target: HIV-1 envelope of pseudovirus 6244_13_85_4576 (HIV-1)
[43] = target: HIV-1 Env of pseudovirus 6811.v7.c18 (HIV-1)
[44] = target: HIV-1 Env of pseudovirus Du156.12 (HIV-1)
[45] = target: HIV-1 Env of pseudovirus HIV-16845-2.22 (HIV-1)
[46] = target: HIV-1 envelope of pseudovirus YU-2 (HIV-1)
[47] = target: HIV-1 Env of pseudovirus 6244_13_85_4576 (HIV-1)
[48] = target: HIV-1 envelope of pseudovirus Q842.d12 (HIV-1)
[49] = target: HIV-1 Env of pseudovirus R1166.c01 (HIV-1)
[50] = target: HIV-1 Env of pseudovirus 6540.v4.c1 (HIV-1)

Chain of 10-1074 (antibody) (VH): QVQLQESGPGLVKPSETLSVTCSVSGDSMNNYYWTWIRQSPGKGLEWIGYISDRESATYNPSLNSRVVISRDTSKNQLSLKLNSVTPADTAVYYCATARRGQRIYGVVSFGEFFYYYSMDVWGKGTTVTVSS
Chain of 10-1074 (antibody) (V domain): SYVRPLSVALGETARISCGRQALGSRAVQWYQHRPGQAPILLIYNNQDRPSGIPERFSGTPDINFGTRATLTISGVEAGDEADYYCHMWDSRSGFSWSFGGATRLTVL
Chain of HIV-1 envelope spike of pseudovirus YU-2 (HIV-1) (P35961 32-843): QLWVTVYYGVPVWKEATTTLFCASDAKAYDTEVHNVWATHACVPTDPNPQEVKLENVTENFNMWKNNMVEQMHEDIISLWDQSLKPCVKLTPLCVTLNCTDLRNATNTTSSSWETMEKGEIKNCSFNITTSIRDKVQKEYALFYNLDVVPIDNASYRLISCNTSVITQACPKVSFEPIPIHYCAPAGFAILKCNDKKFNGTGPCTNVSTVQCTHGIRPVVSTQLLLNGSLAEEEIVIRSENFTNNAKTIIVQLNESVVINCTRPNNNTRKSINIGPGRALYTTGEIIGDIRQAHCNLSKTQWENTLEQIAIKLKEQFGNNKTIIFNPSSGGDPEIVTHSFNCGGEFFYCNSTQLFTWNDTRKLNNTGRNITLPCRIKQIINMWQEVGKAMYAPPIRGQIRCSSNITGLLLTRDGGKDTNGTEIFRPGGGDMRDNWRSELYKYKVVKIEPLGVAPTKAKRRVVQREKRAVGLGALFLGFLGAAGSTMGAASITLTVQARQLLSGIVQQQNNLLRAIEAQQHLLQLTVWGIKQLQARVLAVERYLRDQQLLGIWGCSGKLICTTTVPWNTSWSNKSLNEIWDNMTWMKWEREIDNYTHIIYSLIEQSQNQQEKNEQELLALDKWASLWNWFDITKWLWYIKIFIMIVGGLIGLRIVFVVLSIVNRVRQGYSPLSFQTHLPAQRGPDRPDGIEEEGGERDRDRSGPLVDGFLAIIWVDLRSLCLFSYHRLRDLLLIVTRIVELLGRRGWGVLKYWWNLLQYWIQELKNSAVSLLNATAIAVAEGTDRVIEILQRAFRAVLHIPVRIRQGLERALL
Chain of 10-996 (antibody) (VH): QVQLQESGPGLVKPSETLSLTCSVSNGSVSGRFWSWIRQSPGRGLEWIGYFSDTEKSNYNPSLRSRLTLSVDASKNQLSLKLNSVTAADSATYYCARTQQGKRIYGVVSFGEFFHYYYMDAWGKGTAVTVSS
Chain of 10-996 (antibody) (VL): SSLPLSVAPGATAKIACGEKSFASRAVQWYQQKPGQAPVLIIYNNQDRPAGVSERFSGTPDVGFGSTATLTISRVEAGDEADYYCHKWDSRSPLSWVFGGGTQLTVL

10-996 (antibody)
IC50 (TZM-bl neutralization) [1]: 0.75 µg/mL
IC80 (TZM-bl neutralization) [2]: > 50 µg/mL
IC80 (TZM-bl neutralization) [3]: 43.8 µg/mL
IC50 (TZM-bl neutralization) [4]: > 50 µg/mL
IC50 (TZM-bl neutralization assay) [5]: 0.395 µg/mL
IC80 (TZM-bl neutralization assay) [5]: 1.4 µg/mL
IC50 (TZM-bl neutralization assay) [6]: 0.256 µg/mL
IC80 (TZM-bl neutralization assay) [6]: 0.891 µg/mL
IC80 (TZM-bl neutralization) [7]: 1.85 µg/mL
IC80 (TZM-bl neutralization) [8]: > 50 µg/mL
IC50 (TZM-bl neutralization) [9]: 0.01 µg/mL
IC80 (TZM-bl neutralization) [10]: > 50 µg/mL
IC80 (TZM-bl neutralization) [11]: > 50 µg/mL
IC80 (TZM-bl neutralization) [12]: > 50 µg/mL
IC80 (TZM-bl neutralization) [13]: > 50 µg/mL
IC80 (TZM-bl neutralization) [14]: > 50 µg/mL
IC80 (TZM-bl neutralization) [15]: > 50 µg/mL
IC80 (TZM-bl neutralization) [16]: > 50 µg/mL
IC50 (TZM-bl neutralization) [17]: 0.005 µg/mL
IC80 (TZM-bl neutralization) [18]: > 50 µg/mL
IC80 (TZM-bl neutralization) [19]: > 50 µg/mL
IC50 (TZM-bl neutralization) [20]: > 50 µg/mL
IC50 (TZM-bl neutralization) [21]: > 50 µg/mL
IC50 (TZM-bl neutralization) [22]: 0.034 µg/mL
IC50 (TZM-bl neutralization) [23]: > 50 µg/mL
IC50 (TZM-bl neutralization) [24]: 0.057 µg/mL
IC80 (TZM-bl neutralization) [25]: 0.25 µg/mL
IC80 (TZM-bl neutralization) [26]: 0.144 µg/mL
IC50 (TZM-bl neutralization) [27]: > 50 µg/mL
IC80 (TZM-bl neutralization) [28]: < 0.001 µg/mL
IC80 (TZM-bl neutralization) [29]: 2.22 µg/mL
IC80 (TZM-bl neutralization) [30]: > 50 µg/mL
IC50 (TZM-bl neutralization) [31]: > 50 µg/mL
IC50 (TZM-bl neutralization assay) [32]: 0.516 µg/mL
IC80 (TZM-bl neutralization assay) [32]: 4.26 µg/mL
IC80 (TZM-bl neutralization) [33]: 0.049 µg/mL
IC80 (TZM-bl neutralization) [34]: > 50 µg/mL
IC50 (TZM-bl neutralization assay) [35]: 0.211 µg/mL
IC80 (TZM-bl neutralization assay) [35]: 1.72 µg/mL
IC80 (TZM-bl neutralization) [36]: 0.163 µg/mL
IC80 (TZM-bl neutralization) [37]: 0.422 µg/mL
IC80 (TZM-bl neutralization) [38]: 7.4 µg/mL
IC80 (TZM-bl neutralization) [39]: 0.27 µg/mL
IC80 (TZM-bl neutralization) [40]: 0.328 µg/mL
IC50 (TZM-bl neutralization) [41]: 0.939 µg/mL
IC50 (TZM-bl neutralization) [42]: 0.353 µg/mL
IC80 (TZM-bl neutralization) [43]: 0.011 µg/mL
IC80 (TZM-bl neutralization) [44]: 0.101 µg/mL
IC80 (TZM-bl neutralization) [45]: 9.93 µg/mL
IC50 (TZM-bl neutralization) [46]: 0.256 µg/mL
IC80 (TZM-bl neutralization) [47]: 1.3 µg/mL
IC50 (TZM-bl neutralization) [48]: > 50 µg/mL
IC80 (TZM-bl neutralization) [49]: > 50 µg/mL
IC80 (TZM-bl neutralization) [50]: > 50 µg/mL

10-1074 (antibody)
IC50 (TZM-bl neutralization) [1]: 0.112 µg/mL
IC80 (TZM-bl neutralization) [2]: > 50 µg/mL
IC80 (TZM-bl neutralization) [3]: 13.1 µg/mL
IC50 (TZM-bl neutralization) [4]: > 50 µg/mL
IC50 (TZM-bl neutralization assay) [5]: 0.259 µg/mL
IC80 (TZM-bl neutralization assay) [5]: 0.861 µg/mL
IC50 (TZM-bl neutralization assay) [6]: 0.143 µg/mL
IC80 (TZM-bl neutralization assay) [6]: 0.398 µg/mL
IC80 (TZM-bl neutralization) [7]: 0.929 µg/mL
IC80 (TZM-bl neutralization) [8]: > 50 µg/mL
IC50 (TZM-bl neutralization) [9]: 0.009 µg/mL
IC80 (TZM-bl neutralization) [10]: > 50 µg/mL
IC80 (TZM-bl neutralization) [11]: > 50 µg/mL
IC80 (TZM-bl neutralization) [12]: > 50 µg/mL
IC80 (TZM-bl neutralization) [13]: > 50 µg/mL
IC80 (TZM-bl neutralization) [14]: > 50 µg/mL
IC80 (TZM-bl neutralization) [15]: > 50 µg/mL
IC80 (TZM-bl neutralization) [16]: > 50 µg/mL
IC50 (TZM-bl neutralization) [17]: 0.005 µg/mL
IC80 (TZM-bl neutralization) [18]: > 50 µg/mL
IC80 (TZM-bl neutralization) [19]: > 50 µg/mL
IC50 (TZM-bl neutralization) [20]: > 50 µg/mL
IC50 (TZM-bl neutralization) [21]: > 50 µg/mL
IC50 (TZM-bl neutralization) [22]: 0.021 µg/mL
IC50 (TZM-bl neutralization) [23]: > 50 µg/mL
IC50 (TZM-bl neutralization) [24]: 0.032 µg/mL
IC80 (TZM-bl neutralization) [25]: 0.11 µg/mL
IC80 (TZM-bl neutralization) [26]: 0.128 µg/mL
IC50 (TZM-bl neutralization) [27]: > 50 µg/mL
IC80 (TZM-bl neutralization) [28]: 0.005 µg/mL
IC80 (TZM-bl neutralization) [29]: 0.968 µg/mL
IC80 (TZM-bl neutralization) [30]: > 50 µg/mL
IC50 (TZM-bl neutralization) [31]: > 50 µg/mL
IC50 (TZM-bl neutralization assay) [32]: 0.17 µg/mL
IC80 (TZM-bl neutralization assay) [32]: 0.693 µg/mL
IC80 (TZM-bl neutralization) [33]: 0.041 µg/mL
IC80 (TZM-bl neutralization) [34]: > 50 µg/mL
IC50 (TZM-bl neutralization assay) [35]: 0.178 µg/mL
IC80 (TZM-bl neutralization assay) [35]: 0.766 µg/mL
IC80 (TZM-bl neutralization) [36]: 0.118 µg/mL
IC80 (TZM-bl neutralization) [37]: 0.375 µg/mL
IC80 (TZM-bl neutralization) [38]: 7.39 µg/mL
IC80 (TZM-bl neutralization) [39]: 0.111 µg/mL
IC80 (TZM-bl neutralization) [40]: 0.191 µg/mL
IC50 (TZM-bl neutralization) [41]: 1.08 µg/mL
IC50 (TZM-bl neutralization) [42]: 0.202 µg/mL
IC80 (TZM-bl neutralization) [43]: 0.01 µg/mL
IC80 (TZM-bl neutralization) [44]: 0.076 µg/mL
IC80 (TZM-bl neutralization) [45]: 5.83 µg/mL
IC50 (TZM-bl neutralization) [46]: 0.143 µg/mL
IC80 (TZM-bl neutralization) [47]: 0.922 µg/mL
IC50 (TZM-bl neutralization) [48]: > 50 µg/mL
IC80 (TZM-bl neutralization) [49]: > 50 µg/mL
IC80 (TZM-bl neutralization) [50]: > 50 µg/mL
